Measured values reported in patent US20180057604A1 (Genentech, published 2018).
Substitutions are numbered along the chain they refer to. Names may count otherwise.

T1: cyno TfR extracellular domain (analogous construct to human TfR ecd) (cynomolgus monkey, UniProt Q5RDH6 87-760 (Pongo abelii entry))
T1 construct: also called cynoTfR ecd
T1 chain: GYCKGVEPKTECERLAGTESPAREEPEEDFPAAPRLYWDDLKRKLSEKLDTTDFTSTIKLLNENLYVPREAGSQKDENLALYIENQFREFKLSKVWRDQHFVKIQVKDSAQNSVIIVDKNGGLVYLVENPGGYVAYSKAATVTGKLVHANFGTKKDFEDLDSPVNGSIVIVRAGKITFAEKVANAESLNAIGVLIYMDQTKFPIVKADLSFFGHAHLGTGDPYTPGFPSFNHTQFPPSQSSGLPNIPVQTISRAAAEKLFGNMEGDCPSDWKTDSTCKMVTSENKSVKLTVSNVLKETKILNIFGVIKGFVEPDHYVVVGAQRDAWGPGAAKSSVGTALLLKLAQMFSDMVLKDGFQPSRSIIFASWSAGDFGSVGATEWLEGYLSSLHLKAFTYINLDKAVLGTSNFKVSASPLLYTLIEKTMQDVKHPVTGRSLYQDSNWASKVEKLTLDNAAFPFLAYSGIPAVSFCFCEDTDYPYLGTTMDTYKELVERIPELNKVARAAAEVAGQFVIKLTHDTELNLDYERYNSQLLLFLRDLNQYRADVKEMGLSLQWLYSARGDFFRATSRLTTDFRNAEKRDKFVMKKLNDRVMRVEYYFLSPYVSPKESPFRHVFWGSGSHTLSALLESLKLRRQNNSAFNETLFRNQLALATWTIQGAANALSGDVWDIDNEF

B1: 6315 (antibody, V domains shown)
VH: QLQLQESGPGLVKPSETLSLTCTVSGGSISRGSYYWGWIRQPPGKGLEWIGMIYYSGSTWYNPSLKSRVTISVDTSKNQFSLKLSSVTAADTAVYYCARVGHGVSYFDLWGRGTLVTVSS
VL: EIVLTQSPATLSLSPGERATLSCRASQSVSSYLAWYQQKPGQAPRLLIYDASKRATGIPARFSGSGSGTDFTLTISSLEPEDFAVYYCQQSLVWPPRTFGGGAKVEIK
notes: anti-BACE1 IgG
B2: 6311 (antibody, V domains shown)
VH: B1 VH with R31W, G32S, G37S, M52S, Y55R, S58R, W60Y, V104I, S105N
VL: B1 VL with K53N, V93T, A103T
notes: anti-BACE1 IgG
B3: 6314 (antibody, V domains shown)
VH: B1 VH
VL: B1 VL with K53N, L92I, A103T
notes: anti-BACE1 IgG
B4: 6308 (antibody, V domains shown)
VH: B1 VH with R31W, G32S, G37S, M52S, Y55R, S58R, W60Y, V104I, S105N
VL: B1 VL with A103T
notes: anti-BACE1 IgG
B5: 6313 (antibody, V domains shown)
VH: B1 VH
VL: B1 VL with K53N, S91A, L92Y, A103T
notes: anti-BACE1 IgG
B6: 6307 (antibody, V domains shown)
VH: B1 VH with R31W, G32S, G37S, M52S, Y55R, S58R, W60Y, S67G, V104I, S105N
VL: B1 VL with K53N, L92I, A103T
notes: anti-BACE1 IgG
B7: 6309 (antibody, V domains shown)
VH: B1 VH with R31W, G32S, G37S, M52S, Y55R, S58R, W60Y, V104I, S105N
VL: B1 VL with K53N, L92I, V93T, A103T
notes: anti-BACE1 IgG
B8: 6305 (antibody, V domains shown)
VH: QVQLVQSGAEVKKPGSSVKVSCKASGGTLSGYAISWVRQAPGQGLEWMGNIIPGFGTANYAQKSQGRVTITADESTSTAYMELSSLRSEDTAVYYCARSGGTRYGMLDVWGQGTMVTVSS
VL: B1 VL with L13V, S30G, Y32N, D50G, K53T, D70E, E79Q, P80S, L92F, A103T
notes: anti-BACE1 IgG
B9: 5897 (antibody, V domains shown)
VH: B1 VH with R31W, G32S, G37S, M52S, Y55K, S58R, W60Y, V104I
VL: B1 VL with K53N, V93T, A103T
notes: anti-BACE1 IgG
B10: 5891 (antibody, V domains shown)
VH: B8 VH with L29F, G31S, G54I, T57P, S64F, R103K
VL: EIVMTQSPATLSVSPGERATLSCRASQSVGSNLAWYQQKPGQAPRLLIYGASTRATGIPARFSGSGSGTEFTLTISSLQSEDFAVYYCQQLYTWPPRTFGGGTKVEIK
notes: anti-BACE1 IgG
B11: 5893 (antibody, V domains shown)
VH: B8 VH with L29F, S30R, S64F, R103K
VL: B10 VL
notes: anti-BACE1 IgG
B12: 5892 (antibody, V domains shown)
VH: B8 VH with L29F, G31S, G54I, N59T, S64F, R103K
VL: B10 VL
notes: anti-BACE1 IgG
B13: F91A (Fab, V domains shown)
VH: EVQLVQSGAEVKKPGASVKVSCKASGYTFTSYWMHWVRQAPGQRLEWIGEINPTNGRTNYIEKFKSRATLTVDKSASTAYMELSSLRSEDTAVYYCARGTRAYHYWGQGTMVTVSS
VL: DIQMTQSPSSLSASVGDRVTITCRASDNLYSNLAWYQQKPGKSPKLLVYDATNLADGVPSRFSGSGSGTDYTLTISSLQPEDFATYYCQHAWGTPLTFGQGTKVEIK
notes: also called 15G11.v5 F91A (CDR-L3) Fab
B14: F91A (antibody, V domains shown)
VH: B13 VH
VL: B13 VL
notes: also called 15G11.v5 F91A (CDR-L3) IgG
B15: T96A (antibody, V domains shown)
VH: B13 VH with T100A
VL: B13 VL with A91F
notes: also called 15G11.v5 T96A (CDR-H3) IgG; copies: 2 + 2
B16: W92A (antibody, V domains shown)
VH: B13 VH
VL: B13 VL with A91F, W92A
notes: also called 15G11.v5 W92A (CDR-L3) IgG; 15G11.W92A
B17: Hu15G11.HC32A Fab (Fab, V domains shown)
VH: B13 VH with Y32A
VL: B13 VL with A91F
notes: Fab

Target: T2, murine BACE1 ECD
T2 construct: analyte of the Octet assay (200 nM) and enzyme of the first short substrate assay
T2 sequence (single chain, as listed by the source limits assumed): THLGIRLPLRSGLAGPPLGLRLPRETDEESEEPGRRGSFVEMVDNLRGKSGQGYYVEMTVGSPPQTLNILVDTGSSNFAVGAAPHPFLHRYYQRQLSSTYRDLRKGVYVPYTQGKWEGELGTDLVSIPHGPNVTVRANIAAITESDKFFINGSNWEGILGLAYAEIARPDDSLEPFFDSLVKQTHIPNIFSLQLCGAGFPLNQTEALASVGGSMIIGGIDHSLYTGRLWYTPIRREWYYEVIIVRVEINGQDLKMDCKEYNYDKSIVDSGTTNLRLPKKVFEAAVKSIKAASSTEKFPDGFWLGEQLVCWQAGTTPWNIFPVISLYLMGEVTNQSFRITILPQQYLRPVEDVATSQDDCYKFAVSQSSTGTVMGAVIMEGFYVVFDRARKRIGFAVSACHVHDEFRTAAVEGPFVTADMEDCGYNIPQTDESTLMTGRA
Assay: Octet, pH 7.5

| Kd | Binder |
| --- | --- |
| < 0.26 nM | B1 |
| 0.24 nM | B2 |
| 0.33 nM | B3 |
| < 0.15 nM | B4 |
| 0.27 nM | B5 |
| < 0.15 nM | B6 |
| 0.32 nM | B7 |
| 0.56 nM | B8 |

Target: T3, human BACE1 ECD
T3 construct: analyte of the Octet assay (200 nM) and enzyme of the first short substrate assay; also called human BACE1 extracellular domain
T3 sequence (single chain, as listed by the source limits assumed): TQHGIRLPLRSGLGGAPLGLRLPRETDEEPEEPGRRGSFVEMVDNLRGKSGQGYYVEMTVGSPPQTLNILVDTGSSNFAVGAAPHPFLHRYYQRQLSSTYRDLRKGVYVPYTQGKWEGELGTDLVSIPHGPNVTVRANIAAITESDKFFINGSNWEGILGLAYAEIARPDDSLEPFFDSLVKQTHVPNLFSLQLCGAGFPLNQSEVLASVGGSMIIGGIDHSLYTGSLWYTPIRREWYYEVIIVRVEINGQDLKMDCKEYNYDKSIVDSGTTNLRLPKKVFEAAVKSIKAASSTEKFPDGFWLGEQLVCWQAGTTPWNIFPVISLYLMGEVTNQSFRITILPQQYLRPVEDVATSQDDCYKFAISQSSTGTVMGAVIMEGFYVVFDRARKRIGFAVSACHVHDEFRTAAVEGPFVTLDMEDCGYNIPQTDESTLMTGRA
Assay: Octet, pH 7.5

| Kd | Binder |
| --- | --- |
| < 0.25 nM | B1 |
| 0.25 nM | B2 |
| 0.38 nM | B3 |
| < 0.14 nM | B4 |
| 0.41 nM | B5 |
| < 0.14 nM | B6 |
| 0.34 nM | B7 |
| 0.53 nM | B8 |

Target: T2, murine BACE1 ECD
Assay: Octet, pH 7.5
Remark: another data set of the same source

| Kd | Binder |
| --- | --- |
| 1.1 nM | B9 |
| 1.4 nM | B10 |
| 0.98 nM | B11 |
| 1.3 nM | B12 |

Target: T3, human BACE1 ECD
Assay: Octet, pH 7.5
Remark: another data set of the same source

| Kd | Binder |
| --- | --- |
| 0.95 nM | B9 |
| 0.65 nM | B10 |
| 0.33 nM | B11 |
| 0.88 nM | B12 |

Target: T4, human TfR extracellular domain with N-terminal His tag (human, UniProt P02786 89-760)
T4 construct: Biotinylated in some assays; also called huTfR; HuTfR
T4 sequence (P02786 89-760 G142S): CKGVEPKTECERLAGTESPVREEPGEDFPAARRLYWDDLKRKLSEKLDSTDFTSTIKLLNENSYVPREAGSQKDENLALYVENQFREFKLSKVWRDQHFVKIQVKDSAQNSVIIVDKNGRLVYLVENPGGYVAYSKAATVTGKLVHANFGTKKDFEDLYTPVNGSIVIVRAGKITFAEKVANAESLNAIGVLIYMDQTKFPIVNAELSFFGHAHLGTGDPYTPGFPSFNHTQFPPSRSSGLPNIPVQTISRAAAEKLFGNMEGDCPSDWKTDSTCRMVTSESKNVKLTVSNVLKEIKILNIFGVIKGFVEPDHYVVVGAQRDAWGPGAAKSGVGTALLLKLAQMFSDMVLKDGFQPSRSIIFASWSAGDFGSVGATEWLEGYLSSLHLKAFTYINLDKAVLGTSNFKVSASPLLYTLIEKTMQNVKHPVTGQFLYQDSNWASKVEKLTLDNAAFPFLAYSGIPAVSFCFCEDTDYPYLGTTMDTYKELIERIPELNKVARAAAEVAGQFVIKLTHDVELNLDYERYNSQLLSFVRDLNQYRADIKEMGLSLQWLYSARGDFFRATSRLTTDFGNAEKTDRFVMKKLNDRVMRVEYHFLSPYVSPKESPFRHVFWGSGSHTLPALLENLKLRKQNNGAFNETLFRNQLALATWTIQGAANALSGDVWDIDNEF
Assay: SPR, Fab

| Kd | Binder |
| --- | --- |
| 383 nM | B13 |

Target: BACE1 (HTRF long substrate and FRET short substrate assays of Example 9D)
Assay: cell-based or functional assay

| EC50, FRET short substrate | EC50, HTRF long substrate | Binder |
| --- | --- | --- |
| 0.528 nM | 1.39 nM | B9 |
| 12.4 nM | 3.03 nM | B10 |
| 8.84 nM | 3.59 nM | B11 |
| 16.4 nM | 1.19 nM | B12 |

Target: T2, murine BACE1 ECD
Assay: Octet, pH 5.0

| Kd | Binder |
| --- | --- |
| < 0.25 nM | B1 |
| 0.21 nM | B2 |
| < 0.26 nM | B3 |
| < 0.17 nM | B4 |
| < 0.24 nM | B5 |
| < 0.17 nM | B6 |
| 0.37 nM | B7 |
| 1.6 nM | B8 |

Target: T3, human BACE1 ECD
Assay: Octet, pH 5.0

| Kd | Binder |
| --- | --- |
| < 0.21 nM | B1 |
| 0.2 nM | B2 |
| < 0.22 nM | B3 |
| < 0.14 nM | B4 |
| < 0.21 nM | B5 |
| < 0.13 nM | B6 |
| 0.35 nM | B7 |
| 0.96 nM | B8 |

Target: T4, human TfR extracellular domain with …
Assay: SPR SCK 1:1 fit, IgG

| Kd | Binder |
| --- | --- |
| 167 nM | B14 |
| 173 nM | B15 |
| 31 nM | B16 |

Target: T4, human TfR extracellular domain with …
Assay: SPR steady state, IgG

| Kd | Binder |
| --- | --- |
| 228 nM | B14 |
| 433 nM | B15 |
| 123 nM | B16 |

Target: T1, cyno TfR extracellular domain …
Assay: SPR, TfR captured by anti-His, Fab injected

| Kd | Binder |
| --- | --- |
| 48 nM | B17 |

Target: T2, murine BACE1 ECD
Assay: Octet, pH 5.0
Remark: another data set of the same source

| Kd | Binder |
| --- | --- |
| 0.82 nM | B9 |
| 1.1 nM | B10 |
| 0.73 nM | B11 |
| 1.1 nM | B12 |

Target: T3, human BACE1 ECD
Assay: Octet, pH 5.0
Remark: another data set of the same source

| Kd | Binder |
| --- | --- |
| 0.82 nM | B9 |
| 0.96 nM | B10 |
| 0.38 nM | B11 |
| 0.39 nM | B12 |

Target: T4, human TfR extracellular domain with …
Assay: ELISA, IgG

| EC50 | Binder |
| --- | --- |
| 0.0458 µg/mL | B14 |
| 0.274 µg/mL | B15 |
| 0.0118 µg/mL | B16 |

Target: T1, cyno TfR extracellular domain …
Assay: ELISA, IgG

| EC50 | Binder |
| --- | --- |
| 0.953 µg/mL | B14 |
| 3.38 µg/mL | B15 |

Target: T5, human BACE1 (R&D Systems) (human, UniProt P56817)
T5 construct: recombinant, commercial (R&D Systems)
T5 sequence (P56817 22-457 limits assumed): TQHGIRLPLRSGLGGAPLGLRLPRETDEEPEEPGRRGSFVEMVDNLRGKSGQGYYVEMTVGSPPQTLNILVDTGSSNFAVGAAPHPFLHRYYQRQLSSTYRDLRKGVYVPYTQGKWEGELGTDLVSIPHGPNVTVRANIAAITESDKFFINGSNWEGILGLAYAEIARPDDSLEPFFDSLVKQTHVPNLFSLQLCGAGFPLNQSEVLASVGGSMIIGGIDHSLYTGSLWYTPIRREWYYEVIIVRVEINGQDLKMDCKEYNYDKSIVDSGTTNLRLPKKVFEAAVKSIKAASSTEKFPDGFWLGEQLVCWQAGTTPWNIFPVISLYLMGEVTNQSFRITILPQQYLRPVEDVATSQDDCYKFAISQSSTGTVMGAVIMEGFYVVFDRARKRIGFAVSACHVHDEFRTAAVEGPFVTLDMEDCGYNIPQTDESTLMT
Assay: SPR (Biacore)

| Kd | Binder |
| --- | --- |
| 2.07 nM | B9 |
| 3.29 nM | B10 |
| 2.76 nM | B11 |
| 2.97 nM | B12 |

Target: T6, BACE1 in primary mouse cortical neurons (mouse, UniProt P56818 46-501)
T6 sequence (P56818 46-501): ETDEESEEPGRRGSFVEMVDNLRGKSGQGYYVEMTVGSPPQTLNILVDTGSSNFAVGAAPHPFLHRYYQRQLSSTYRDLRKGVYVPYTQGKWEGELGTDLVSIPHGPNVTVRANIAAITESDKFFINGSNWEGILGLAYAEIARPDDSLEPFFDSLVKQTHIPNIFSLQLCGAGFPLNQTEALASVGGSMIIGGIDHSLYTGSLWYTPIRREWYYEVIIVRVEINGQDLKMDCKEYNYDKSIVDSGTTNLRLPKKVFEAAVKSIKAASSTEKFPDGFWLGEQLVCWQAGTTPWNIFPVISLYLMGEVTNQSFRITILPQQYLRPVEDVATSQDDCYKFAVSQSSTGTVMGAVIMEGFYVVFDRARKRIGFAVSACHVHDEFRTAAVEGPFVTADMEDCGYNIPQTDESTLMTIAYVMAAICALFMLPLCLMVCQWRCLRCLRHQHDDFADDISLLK
Assay: cell-based or functional assay

| maximal % inhibition of Abeta x-40 | IC50, Abeta x-40 in mouse cortical neurons | Binder |
| --- | --- | --- |
| 73% | – | B1 |
| 63% | 0.15 nM | B2 |
| 71% | 3.38 nM | B3 |
| 60% | 0.68 nM | B4 |
| 67% | 2.78 nM | B5 |
| 68% | 0.45 nM | B6 |
| 60% | 0.3 nM | B7 |
| 67% | 9.69 nM | B8 |

Target: T6, BACE1 in primary mouse cortical neurons
Assay: cell-based or functional assay
Remark: another data set of the same source

| IC50, Abeta x-40 in mouse cortical neurons | maximal % inhibition of Abeta x-40 | Binder |
| --- | --- | --- |
| 0.3 nM | 62% | B9 |
| 18 nM | 78% | B10 |
| 9.46 nM | 73% | B11 |
| 9.52 nM | 73% | B12 |

Target: T2, murine BACE1 ECD
Assay: cell-based or functional assay

| % inhibition of BACE1 activity, short FRET substrate | Binder |
| --- | --- |
| -3% | B9 |
| 70% | B10 |
| 69% | B11 |
| 64% | B12 |

Target: T3, human BACE1 ECD
Assay: cell-based or functional assay

| % inhibition of BACE1 activity, short FRET substrate | Binder |
| --- | --- |
| 1% | B9 |
| 71% | B10 |
| 72% | B11 |
| 64% | B12 |
